These results are taken from patent US20120114557A1.

The target of experiment [1] is human collagen type I (human) (UniProt P02452). The experiment in a line: dried collagen assay, chelate conjugate.
Experiment [2] has as its target rat collagen type I (rat) (UniProt P02454). The experiment in a line: dried collagen assay, chelate conjugate.

Sequence of rat collagen type I (rat) (P02454 152-1207, chain 1 of 2): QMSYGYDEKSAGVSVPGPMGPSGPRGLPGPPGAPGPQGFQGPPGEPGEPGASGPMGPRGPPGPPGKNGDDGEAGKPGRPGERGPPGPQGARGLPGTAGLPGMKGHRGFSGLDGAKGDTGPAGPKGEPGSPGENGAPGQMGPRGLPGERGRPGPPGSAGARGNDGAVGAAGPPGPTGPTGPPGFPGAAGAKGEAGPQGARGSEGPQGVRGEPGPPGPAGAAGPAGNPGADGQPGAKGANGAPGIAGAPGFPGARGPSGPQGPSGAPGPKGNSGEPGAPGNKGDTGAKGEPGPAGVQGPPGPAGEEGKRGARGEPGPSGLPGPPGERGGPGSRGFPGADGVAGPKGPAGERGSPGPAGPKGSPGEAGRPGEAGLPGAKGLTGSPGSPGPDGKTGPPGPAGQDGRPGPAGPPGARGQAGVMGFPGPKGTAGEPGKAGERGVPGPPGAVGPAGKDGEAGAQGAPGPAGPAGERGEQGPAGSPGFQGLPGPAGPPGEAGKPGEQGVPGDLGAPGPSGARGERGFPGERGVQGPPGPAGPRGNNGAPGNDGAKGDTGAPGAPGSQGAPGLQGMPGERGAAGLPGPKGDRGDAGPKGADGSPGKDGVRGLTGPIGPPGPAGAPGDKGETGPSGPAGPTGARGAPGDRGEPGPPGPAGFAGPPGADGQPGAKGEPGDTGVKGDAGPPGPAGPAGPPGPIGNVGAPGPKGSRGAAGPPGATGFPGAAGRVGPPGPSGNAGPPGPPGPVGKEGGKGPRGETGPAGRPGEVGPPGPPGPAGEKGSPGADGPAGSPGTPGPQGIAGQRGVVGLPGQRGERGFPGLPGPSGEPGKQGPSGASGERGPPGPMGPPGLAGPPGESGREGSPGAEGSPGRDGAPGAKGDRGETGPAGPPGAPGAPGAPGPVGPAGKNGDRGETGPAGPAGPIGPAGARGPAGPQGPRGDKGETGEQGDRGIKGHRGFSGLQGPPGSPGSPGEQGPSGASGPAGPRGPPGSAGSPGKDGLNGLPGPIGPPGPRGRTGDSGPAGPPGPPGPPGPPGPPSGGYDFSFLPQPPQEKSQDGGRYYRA
Sequence of rat collagen type I (rat) (P02466 86-1125, chain 2 of 2, further chain): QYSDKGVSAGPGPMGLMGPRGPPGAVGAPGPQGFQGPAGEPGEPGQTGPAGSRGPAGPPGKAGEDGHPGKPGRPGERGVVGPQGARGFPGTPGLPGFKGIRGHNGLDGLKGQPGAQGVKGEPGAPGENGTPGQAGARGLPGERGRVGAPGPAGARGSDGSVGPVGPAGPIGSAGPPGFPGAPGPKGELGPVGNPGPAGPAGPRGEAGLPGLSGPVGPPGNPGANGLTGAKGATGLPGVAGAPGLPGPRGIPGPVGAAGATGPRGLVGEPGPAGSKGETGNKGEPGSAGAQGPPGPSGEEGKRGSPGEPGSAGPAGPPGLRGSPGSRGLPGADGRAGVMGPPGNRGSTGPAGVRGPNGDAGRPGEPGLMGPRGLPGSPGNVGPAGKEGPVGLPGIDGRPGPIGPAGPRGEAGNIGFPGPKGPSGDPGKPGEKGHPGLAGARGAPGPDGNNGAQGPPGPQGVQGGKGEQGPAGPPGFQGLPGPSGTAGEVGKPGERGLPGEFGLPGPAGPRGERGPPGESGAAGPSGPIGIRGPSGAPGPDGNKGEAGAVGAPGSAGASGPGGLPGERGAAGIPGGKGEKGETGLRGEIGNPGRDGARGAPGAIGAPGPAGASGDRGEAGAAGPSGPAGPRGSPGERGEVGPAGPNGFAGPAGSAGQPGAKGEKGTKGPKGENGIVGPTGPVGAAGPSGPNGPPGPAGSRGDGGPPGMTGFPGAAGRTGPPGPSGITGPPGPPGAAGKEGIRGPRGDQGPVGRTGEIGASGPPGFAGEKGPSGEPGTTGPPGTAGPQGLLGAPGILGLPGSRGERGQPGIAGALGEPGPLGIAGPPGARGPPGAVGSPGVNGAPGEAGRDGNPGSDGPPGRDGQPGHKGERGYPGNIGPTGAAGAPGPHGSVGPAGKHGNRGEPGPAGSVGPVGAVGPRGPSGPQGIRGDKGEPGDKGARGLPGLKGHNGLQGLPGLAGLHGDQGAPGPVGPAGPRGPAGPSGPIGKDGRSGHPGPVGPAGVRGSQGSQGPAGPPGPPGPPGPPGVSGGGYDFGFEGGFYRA
Sequence of human collagen type I (human) (P02452 162-1218 limits assumed, chain 1 of 2): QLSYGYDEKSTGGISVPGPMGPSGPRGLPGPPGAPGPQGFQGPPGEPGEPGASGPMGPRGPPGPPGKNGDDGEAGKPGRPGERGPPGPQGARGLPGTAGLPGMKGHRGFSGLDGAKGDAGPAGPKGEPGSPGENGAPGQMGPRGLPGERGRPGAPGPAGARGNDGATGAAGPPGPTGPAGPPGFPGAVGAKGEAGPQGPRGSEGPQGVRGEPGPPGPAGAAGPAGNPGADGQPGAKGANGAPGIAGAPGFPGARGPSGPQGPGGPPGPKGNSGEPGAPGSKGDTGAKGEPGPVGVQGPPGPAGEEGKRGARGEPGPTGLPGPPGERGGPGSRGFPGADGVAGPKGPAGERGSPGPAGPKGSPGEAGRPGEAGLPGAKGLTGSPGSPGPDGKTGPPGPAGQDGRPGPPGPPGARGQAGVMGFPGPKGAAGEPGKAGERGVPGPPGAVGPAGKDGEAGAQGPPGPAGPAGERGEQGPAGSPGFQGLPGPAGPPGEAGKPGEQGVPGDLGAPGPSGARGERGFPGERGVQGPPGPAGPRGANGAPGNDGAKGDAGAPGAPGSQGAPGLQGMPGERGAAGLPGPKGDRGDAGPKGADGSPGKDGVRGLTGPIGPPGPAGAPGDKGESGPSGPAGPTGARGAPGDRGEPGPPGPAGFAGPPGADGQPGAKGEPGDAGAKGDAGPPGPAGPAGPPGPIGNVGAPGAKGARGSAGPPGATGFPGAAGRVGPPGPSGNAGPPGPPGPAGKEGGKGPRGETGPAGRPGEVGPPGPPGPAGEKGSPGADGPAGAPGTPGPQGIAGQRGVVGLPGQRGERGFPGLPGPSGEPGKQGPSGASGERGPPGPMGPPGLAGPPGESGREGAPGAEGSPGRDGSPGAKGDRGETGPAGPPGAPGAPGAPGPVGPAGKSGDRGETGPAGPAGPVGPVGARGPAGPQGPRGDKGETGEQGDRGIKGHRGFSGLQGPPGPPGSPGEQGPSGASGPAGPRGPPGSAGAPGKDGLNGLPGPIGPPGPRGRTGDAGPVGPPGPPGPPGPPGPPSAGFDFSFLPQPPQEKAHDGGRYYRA
Sequence of human collagen type I (human) (P08123 80-1119 limits assumed, chain 2 of 2, further chain): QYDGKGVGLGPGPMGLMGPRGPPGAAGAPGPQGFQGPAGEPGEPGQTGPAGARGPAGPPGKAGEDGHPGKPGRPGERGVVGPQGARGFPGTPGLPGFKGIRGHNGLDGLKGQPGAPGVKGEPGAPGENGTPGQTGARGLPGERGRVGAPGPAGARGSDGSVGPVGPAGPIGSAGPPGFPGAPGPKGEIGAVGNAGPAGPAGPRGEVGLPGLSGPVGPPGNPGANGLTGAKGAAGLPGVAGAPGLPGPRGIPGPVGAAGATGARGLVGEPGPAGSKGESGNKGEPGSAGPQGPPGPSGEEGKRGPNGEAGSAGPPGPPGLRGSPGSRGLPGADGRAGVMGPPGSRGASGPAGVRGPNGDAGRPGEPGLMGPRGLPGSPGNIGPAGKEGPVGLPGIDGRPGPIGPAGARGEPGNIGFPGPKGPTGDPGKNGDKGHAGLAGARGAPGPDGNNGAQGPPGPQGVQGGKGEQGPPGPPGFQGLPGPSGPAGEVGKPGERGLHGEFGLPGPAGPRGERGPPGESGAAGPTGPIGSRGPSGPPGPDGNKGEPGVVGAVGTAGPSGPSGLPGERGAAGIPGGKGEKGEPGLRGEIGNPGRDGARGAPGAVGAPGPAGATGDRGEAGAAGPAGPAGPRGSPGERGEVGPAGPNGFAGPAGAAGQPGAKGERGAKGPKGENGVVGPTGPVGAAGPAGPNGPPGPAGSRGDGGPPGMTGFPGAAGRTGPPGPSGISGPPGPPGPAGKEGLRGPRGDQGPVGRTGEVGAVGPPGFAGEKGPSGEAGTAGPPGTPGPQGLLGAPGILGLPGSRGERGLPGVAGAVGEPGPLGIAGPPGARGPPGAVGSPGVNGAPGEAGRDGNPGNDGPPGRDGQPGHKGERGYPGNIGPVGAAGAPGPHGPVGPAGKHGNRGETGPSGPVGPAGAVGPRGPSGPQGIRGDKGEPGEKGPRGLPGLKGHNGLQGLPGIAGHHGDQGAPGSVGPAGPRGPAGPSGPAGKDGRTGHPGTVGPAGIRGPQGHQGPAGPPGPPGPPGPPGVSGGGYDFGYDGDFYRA

As for “Glu-DTPA-Gd-PEG(20)-G-Q-W-T-C-S-G-D-E-Y-T-W-H-C-N-Y-e (peptide)”, the % Binding Collagen I, Human in experiment [1] was 28%. Also, the % Binding Collagen I, Rat in experiment [2] stood at 5%.
